In paper PMC9352680, “A comprehensive thermodynamic model for RNA binding by the Saccharomyces cerevisiae Pumilio protein PUF4”:

T1: PUF4 RNA-binding domain (Saccharomyces cerevisiae, UniProt P25339 537-888)
T1 sequence: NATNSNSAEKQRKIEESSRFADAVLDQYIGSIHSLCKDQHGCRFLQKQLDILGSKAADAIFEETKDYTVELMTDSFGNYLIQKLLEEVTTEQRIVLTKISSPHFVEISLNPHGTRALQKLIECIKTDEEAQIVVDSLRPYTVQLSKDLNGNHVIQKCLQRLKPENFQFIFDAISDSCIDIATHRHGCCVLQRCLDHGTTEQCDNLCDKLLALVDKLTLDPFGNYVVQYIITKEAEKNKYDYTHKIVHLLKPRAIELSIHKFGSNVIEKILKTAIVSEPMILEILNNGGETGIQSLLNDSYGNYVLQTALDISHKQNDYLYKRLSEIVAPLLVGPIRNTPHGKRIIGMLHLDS


molecular target: T1, PUF4 RNA-binding domain; test: Mg; RNA-MaP; 20 mM Na-HEPES pH 7.4, 30 mM KOAc, 0.75 mM MgCl2, 0.1% Tween-20, 5% glycerol, 0.1 mg/mL BSA, 2 mM DTT; 25 C; 0.0125-409.6 nM protein; details: tags: N-His6-TEV cleaved; C-SNAP kept, Cy3B-labelled; label: tethered on chip by stalled RNA polymerase

For UCUCUUUUUGUAUAUUAAUUCUCUU (ssRNA) [Id_ii_S1_P4E.2_K4.1_C4.2_[C-2T]_H4.1_A4.1_F4.1_T4.2_[G10A]], which Kd is on record?
Its Kd is 1.09 nM.

With UCUCUUUUUGUAUAUUAUGUCUCUU (ssRNA) [Id_ii_S1_P4E.2_K4.1_C4.2_[C-2T]_H4.1_A4.1_F4.1_T4.2_[G10T]_[T11G]] as the binder, how does the Kd read?
Its Kd is 0.981 nM.

For UCUCUUCCUGUAUAUUAUUUCUCUU (ssRNA) [Id_ii_S1_P4E.2_K4.1_C4.2_[T-1C]_H4.1_A4.1_F4.1_T4.2_[G10T]], which Kd is on record?
The Kd was 0.724 nM.

How did the Kd turn out when UCUCUUUUUGUAUAUUAUUUCUCUU (ssRNA) [Id_ii_S1_P4E.2_K4.1_C4.2_[C-2T]_H4.1_A4.1_F4.1_T4.2_[G10T]] was run?
The Kd was 0.679 nM.

How did the Kd turn out when UCUCUUUGUAUACUAUCUCUU (ssRNA) [Ic_S1_P4E.1_K4.1_C4.1_H4.1_A4.1_[T7C]_F4.1_T4.1] was run?
Its Kd is 0.741 nM.

How did the Kd turn out when UCUCUUUUUGUAUAUUACUUCUCUU (ssRNA) [Id_ii_S1_P4E.2_K4.1_C4.2_[C-2T]_H4.1_A4.1_F4.1_T4.2_[G10C]] was run?
Its Kd is 0.909 nM.

For UCUCUUAAUGUAUAUUACCUCUCUU (ssRNA) [Id_ii_S1_P4E.2_K4.1_C4.2_[C-2A]_[T-1A]_H4.1_A4.1_F4.1_T4.2_[G10C]_[T11C]], which Kd is on record?
Its Kd is 2.09 nM.

With UCUCUUUUUGUAUAUUAACUCUCUU (ssRNA) [Id_ii_S1_P4E.2_K4.1_C4.2_[C-2T]_H4.1_A4.1_F4.1_T4.2_[G10A]_[T11C]] as the binder, how does the Kd read?
The Kd was 1.09 nM.

Which Kd does the source give for UCUCUUACUGUAUAUUAUGUCUCUU (ssRNA) [Id_ii_S1_P4E.2_K4.1_C4.2_[C-2A]_[T-1C]_H4.1_A4.1_F4.1_T4.2_[G10T]_[T11G]] here?
Its Kd is 1.34 nM.

For UCUCUUCGUGUAUAUUAUUUCUCUU (ssRNA) [Id_ii_S1_P4E.2_K4.1_C4.2_[T-1G]_H4.1_A4.1_F4.1_T4.2_[G10T]], which Kd is on record?
The Kd was 1.19 nM.

UCUCUUCCUGUAUAUUAACUCUCUU (ssRNA) [Id_ii_S1_P4E.2_K4.1_C4.2_[T-1C]_H4.1_A4.1_F4.1_T4.2_[G10A]_[T11C]] was tested. Which Kd did it give?
The Kd was 0.991 nM.

Which Kd does the source give for UCUCUUACUGUAUAUUACCUCUCUU (ssRNA) [Id_ii_S1_P4E.2_K4.1_C4.2_[C-2A]_[T-1C]_H4.1_A4.1_F4.1_T4.2_[G10C]_[T11C]] here?
Its Kd is 1.69 nM.

For UCUCUUACUGUAUAUUAUAUCUCUU (ssRNA) [Id_ii_S1_P4E.2_K4.1_C4.2_[C-2A]_[T-1C]_H4.1_A4.1_F4.1_T4.2_[G10T]_[T11A]], which Kd is on record?
Its Kd is 1.83 nM.

How did the Kd turn out when UCUCUUCCUGUAUAUUAAAUCUCUU (ssRNA) [Id_ii_S1_P4E.2_K4.1_C4.2_[T-1C]_H4.1_A4.1_F4.1_T4.2_[G10A]_[T11A]] was run?
The Kd was 1.26 nM.

UCUCUUUUUGUAUAUUAGCUCUCUU (ssRNA) [Id_ii_S1_P4E.2_K4.1_C4.2_[C-2T]_H4.1_A4.1_F4.1_T4.2_[T11C]] was tested. Which Kd did it give?
Its Kd is 0.413 nM.

Which Kd does the source give for UCUCUUCCUGUAUAUUAAGUCUCUU (ssRNA) [Id_ii_S1_P4E.2_K4.1_C4.2_[T-1C]_H4.1_A4.1_F4.1_T4.2_[G10A]_[T11G]] here?
The Kd was 1.9 nM.

With UCUCUUAUUGUAUAUUACUUCUCUU (ssRNA) [Id_ii_S1_P4E.2_K4.1_C4.2_[C-2A]_H4.1_A4.1_F4.1_T4.2_[G10C]] as the binder, how does the Kd read?
The Kd was 1.16 nM.

UCUCUUAUUGUAUAUUAUUUCUCUU (ssRNA) [Id_ii_S1_P4E.2_K4.1_C4.2_[C-2A]_H4.1_A4.1_F4.1_T4.2_[G10T]] was tested. Which Kd did it give?
Its Kd is 0.453 nM.

How did the Kd turn out when UCUCUUCCUGUAUAUUAUCUCUCUU (ssRNA) [Id_ii_S1_P4E.2_K4.1_C4.2_[T-1C]_H4.1_A4.1_F4.1_T4.2_[G10T]_[T11C]] was run?
Its Kd is 0.601 nM.

How did the Kd turn out when UCUCUUACUGUAUAUUAUCUCUCUU (ssRNA) [Id_ii_S1_P4E.2_K4.1_C4.2_[C-2A]_[T-1C]_H4.1_A4.1_F4.1_T4.2_[G10T]_[T11C]] was run?
The Kd was 1.4 nM.

How did the Kd turn out when UCUCUUCCUGUAUAUUACUUCUCUU (ssRNA) [Id_ii_S1_P4E.2_K4.1_C4.2_[T-1C]_H4.1_A4.1_F4.1_T4.2_[G10C]] was run?
The Kd was 0.91 nM.

How did the Kd turn out when UCUCUUAUUGUAUAUUAAUUCUCUU (ssRNA) [Id_ii_S1_P4E.2_K4.1_C4.2_[C-2A]_H4.1_A4.1_F4.1_T4.2_[G10A]] was run?
Its Kd is 1.16 nM.

UCUCUUUUUGUAUAUUACCUCUCUU (ssRNA) [Id_ii_S1_P4E.2_K4.1_C4.2_[C-2T]_H4.1_A4.1_F4.1_T4.2_[G10C]_[T11C]] was tested. Which Kd did it give?
Its Kd is 1.09 nM.

For UCUCUUCGUGUAUAUUAAUUCUCUU (ssRNA) [Id_ii_S1_P4E.2_K4.1_C4.2_[T-1G]_H4.1_A4.1_F4.1_T4.2_[G10A]], which Kd is on record?
Its Kd is 1.2 nM.

Which Kd does the source give for UCUCUUUAUGUAUAUUAAUUCUCUU (ssRNA) [Id_ii_S1_P4E.2_K4.1_C4.2_[C-2T]_[T-1A]_H4.1_A4.1_F4.1_T4.2_[G10A]] here?
Its Kd is 1.17 nM.

Which Kd does the source give for UCUCUUUAUGUAUAUUAGCUCUCUU (ssRNA) [Id_ii_S1_P4E.2_K4.1_C4.2_[C-2T]_[T-1A]_H4.1_A4.1_F4.1_T4.2_[T11C]] here?
Its Kd is 0.465 nM.

For UCUCUUUGCAUACUAUCUCUU (ssRNA) [Ib_S1_P4E.1_K4.1_C4.1_H4.1_[T3C]_A4.1_[T7C]_F4.1_T4.1], which Kd is on record?
The Kd was 117 nM.

With UCUCUUUUUGUAUAUUAAAUCUCUU (ssRNA) [Id_ii_S1_P4E.2_K4.1_C4.2_[C-2T]_H4.1_A4.1_F4.1_T4.2_[G10A]_[T11A]] as the binder, how does the Kd read?
Its Kd is 1.21 nM.

UCUCUUUGCAUUUUAUCUCUU (ssRNA) [Ib_S1_P4E.1_K4.1_C4.1_H4.1_[T3C]_A4.1_[A6T]_F4.1_T4.1] was tested. Which Kd did it give?
Its Kd is 1640 nM.

With UCUCUUUGCAUAGUAUCUCUU (ssRNA) [Ib_S1_P4E.1_K4.1_C4.1_H4.1_[T3C]_A4.1_[T7G]_F4.1_T4.1] as the binder, how does the Kd read?
The Kd was 647 nM.

UCUCUUCGUGUAUAUUAAGUCUCUU (ssRNA) [Id_ii_S1_P4E.2_K4.1_C4.2_[T-1G]_H4.1_A4.1_F4.1_T4.2_[G10A]_[T11G]] was tested. Which Kd did it give?
Its Kd is 3.06 nM.
